Measurements from IntAct's records for PubMed 23664119.

B1: Protein bicaudal D homolog 2 (Homo sapiens), Q8TD16 (parent)
chain: MSAPSEEEEYARLVMEAQPEWLRAEVKRLSHELAETTREKIQAAEYGLAVLEEKHQLKLQFEELEVDYEAIRSEMEQLKEAFGQAHTNHKKVAADGESREESLIQESASKEQYYVRKVLELQTELKQLRNVLTNTQSENERLASVAQELKEINQNVEIQRGRLRDDIKEYKFREARLLQDYSELEEENISLQKQVSVLRQNQVEFEGLKHEIKRLEEETEYLNSQLEDAIRLKEISERQLEEALETLKTEREQKNSLRKELSHYMSINDSFYTSHLHVSLDGLKFSDDAAEPNNDAEALVNGFEHGGLAKLPLDNKTSTPKKEGLAPPSPSLVSDLLSELNISEIQKLKQQLMQMEREKAGLLATLQDTQKQLEHTRGSLSEQQEKVTRLTENLSALRRLQASKERQTALDNEKDRDSHEDGDYYEVDINGPEILACKYHVAVAEAGELREQLKALRSTHEAREAQHAEEKGRYEAEGQALTEKVSLLEKASRQDRELLARLEKELKKVSDVAGETQGSLSVAQDELVTFSEELANLYHHVCMCNNETPNRVMLDYYREGQGGAGRTSPGGRTSPEARGRRSPILLPKGLLAPEAGRADGGTGDSSPSPGSSLPSPLSDPRREPMNIYNLIAIIRDQIKHLQAAVDRTTELSRQRIASQELGPAVDKDKEALMEEILKLKSLLSTKREQITTLRTVLKANKQTAEVALANLKSKYENEKAMVTETMMKLRNELKALKEDAATFSSLRAMFATRCDEYITQLDEMQRQLAAAEDEKKTLNSLLRMAIQQKLALTQRLELLELDHEQTRRGRAKAAPKTKPATPSL

Assays:
[1] = variants of: B1; details: with rab6a_human RAB6A
[2] = variants of: B1; details: with dc1i1_human DYNC1I1, O14576
Chain of dc1i1_human DYNC1I1, O14576 (O14576 whole entry): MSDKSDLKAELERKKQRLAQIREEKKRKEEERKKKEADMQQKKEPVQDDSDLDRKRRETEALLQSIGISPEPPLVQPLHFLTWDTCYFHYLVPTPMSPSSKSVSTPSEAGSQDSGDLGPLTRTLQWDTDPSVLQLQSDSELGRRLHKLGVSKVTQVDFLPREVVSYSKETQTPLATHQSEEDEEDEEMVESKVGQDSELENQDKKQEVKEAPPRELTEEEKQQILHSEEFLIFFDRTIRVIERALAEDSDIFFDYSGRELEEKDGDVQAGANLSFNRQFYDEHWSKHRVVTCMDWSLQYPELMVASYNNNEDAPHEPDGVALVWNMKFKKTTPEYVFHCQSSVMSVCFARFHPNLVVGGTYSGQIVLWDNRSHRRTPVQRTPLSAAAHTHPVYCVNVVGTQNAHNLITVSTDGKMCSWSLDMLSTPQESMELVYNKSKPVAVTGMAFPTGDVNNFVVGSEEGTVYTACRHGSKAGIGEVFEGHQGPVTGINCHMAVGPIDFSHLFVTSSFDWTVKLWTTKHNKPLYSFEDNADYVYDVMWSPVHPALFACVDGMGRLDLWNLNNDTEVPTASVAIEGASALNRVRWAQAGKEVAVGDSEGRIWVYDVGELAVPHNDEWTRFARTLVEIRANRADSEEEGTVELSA

[3] = variants of: B1; details: with rab6a_human RAB6A; remark: listed apart in the source

| Variant | effect of a mutation on the interaction [1] | effect of a mutation on the interaction [2] | effect of a mutation on the interaction [3] |
| --- | --- | --- | --- |
| E774G | decreasing interaction strength |  |  |
| S107L | with no effect | increasing interaction strength | decreasing interaction strength |
